One assay addresses T1, cynomolgus suPAR (cynomolgus, UniProt Q9GK78 23-303, limits assumed).
T1 construct: Target antigen of the off-rate screen; also called cynomolgus uPAR; cynoPLAUR-His
Put plainly: BLI (Octet) off-rate screen of scFv clones. (In general: BLI is a label-free optical method that tracks binding on a fibre tip over time.)

The target of assay [1] is T2, human soluble urokinase plasminogen activator receptor (hsuPAR) (human, UniProt Q03405 23-303, limits assumed).
T2 construct: Target antigen of the off-rate screen; also called human suPAR; rhuPAR-His
Put plainly: BLI (Octet) off-rate screen of scFv clones.
T2 sequence (Q03405 23-303 limits assumed): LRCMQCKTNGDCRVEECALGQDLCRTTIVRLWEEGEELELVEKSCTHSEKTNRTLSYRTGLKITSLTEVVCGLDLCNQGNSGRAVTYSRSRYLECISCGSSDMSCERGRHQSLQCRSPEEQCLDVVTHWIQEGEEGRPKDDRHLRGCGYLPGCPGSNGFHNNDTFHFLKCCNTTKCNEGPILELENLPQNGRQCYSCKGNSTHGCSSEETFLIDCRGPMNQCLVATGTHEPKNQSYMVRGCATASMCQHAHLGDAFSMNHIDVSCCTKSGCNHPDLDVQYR

Assay [2] addresses T3, cynomolgus soluble urokinase plasminogen activator receptor (cynomolgus suPAR) (cynomolgus, UniProt Q9GK78 23-303, limits assumed).
T3 construct: also called cynomolgus uPAR; cynoPLAUR-His
Put plainly: off-rate screen of scFv clones (kdis), Octet BLI.

The target of assay [3] is T4, human soluble urokinase plasminogen activator receptor (hsuPAR) (human, UniProt Q03405 23-303, limits assumed).
T4 construct: also called human suPAR; rhuPAR-His
Put plainly: off-rate screen of scFv clones (kdis), Octet BLI.
T4 sequence (Q03405 23-303 limits assumed): as above

A word on the koff: it is a measure of how fast the partners let go of each other.

T1 sequence (Q9GK78 23-303 limits assumed): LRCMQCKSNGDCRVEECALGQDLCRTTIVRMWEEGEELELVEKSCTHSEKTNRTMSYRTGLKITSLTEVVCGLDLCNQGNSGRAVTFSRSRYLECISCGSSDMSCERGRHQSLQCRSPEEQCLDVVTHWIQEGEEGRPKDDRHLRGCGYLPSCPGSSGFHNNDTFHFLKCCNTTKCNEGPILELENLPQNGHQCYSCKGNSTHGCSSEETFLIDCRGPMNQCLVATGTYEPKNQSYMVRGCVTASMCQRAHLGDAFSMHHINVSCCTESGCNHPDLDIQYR
T3 sequence (Q9GK78 23-303 limits assumed): as above

B1: suPAR_DB03_D06 (scFv, V domains shown)
VH: QVQLVQSGAEVKKPGASVKVSCKASGYSFTNYYMHWVRQAPGQGLEWMGWIDHENGNTSYAQKFQGRVTMTRDTSTSTVYMELSSLRSEDTAVYYCARGYDVDWFVYWGQGTLVTVSS
VL: DIQMTQSPSSLSASVGDRVTITCSARSSVSYMYWYQQKPGKAPKLLIYRTSNLASGVPSRFSGSGSGTDFTLTISSLQPEDFATYYCQQYHSYPPTFGGGTKVEIK
notes: screened as scFv
Consider B1, for which the values for the koff (with cynomolgus suPAR; in assay [1]) were 0.000388 s⁻¹ and 0.00295 s⁻¹, respectively.

B2: suPAR_DB04_D09 (scFv, V domains shown)
VH: QVQLVQSGAEVKKPGASVKVSCKASGYTFTAYYMHWVRQAPGQGLEWMGWIDHENGNTIYDQKFQGRVTMTRDTSTSTVYMELSSLRSEDTAVYYCARGYDVDWFVYWGQGTLVTVSS
VL: DIQMTQSPSSLSASVGDRVTITCSARSSVSYMYWYQQKPGKAPKLLIYRTSNLASGVPSRFSGSGSGTDFTLTISSLQPEDFATYYCQQYHSYPPTFGGGTKVEIK
notes: scFv clone from phage display
In the case of B2, the figures for the koff in assay [2] and in assay [3] were 0.000206 s⁻¹ and 0.00203 s⁻¹, respectively.

B3: suPAR_DB03_E09 (scFv, V domains shown)
VH: QVQLVQSGAEVKKPGASVKVSCKASGFNIKDYYIHWVRQAPGQGLEWMGWIDPNSGGTNYAQKFQGRVTMTRDTSTSTVYMELSSLRSEDTAVYYCARGYDVDWFVYWGQGTLVTVSS
VL: DIQMTQSPSSLSASVGDRVTITCRARQSVSYMYWYQQKPGKAPKLLIYRTSNLASGVPSRFSGSGSGTDFTLTISSLQPEDFATYYCQQYHSYPPTFGGGTKVEIK
notes: screened as scFv
With B3, the koff with cynomolgus suPAR was determined as 0.000132 s⁻¹; in assay [1], 0.00426 s⁻¹.

B4: suPAR_DB03_D12 (scFv, V domains shown)
VH: QVQLVQSGAEVKKPGASVKVSCKASGYTFSNYYMHWVRQAPGQGLEWMGWIDPENGNTIYAQKFQGRVTMTRDTSTSTVYMELSSLRSEDTAVYYCARGYDVDWFVYWGQGTLVTVSS
VL: DIQMTQSPSSLSASVGDRVTITCRARSSVSYMYWYQQKPGKAPKLLIYRTSNLQSGVPSRFSGSGSGTDFTLTISSLQPEDFATYYCQQYHSYPPTFGGGTKVEIK
notes: screened as scFv
B4: the off-rate (koff) with cynomolgus suPAR worked out at 0.000263 s⁻¹; in assay [1], 0.0057 s⁻¹.

B5: suPAR_DB03_E02 (scFv, V domains shown)
VH: QVQLVQSGAEVKKPGASVKVSCKASGYNFTGYYIHWVRQAPGQGLEWMGWIDHENGNTIYAQKFQGRVTMTRDTSTSTVYMELSSLRSEDTAVYYCARGYDVDWFVYWGQGTLVTVSS
VL: DIQMTQSPSSLSASVGDRVTITCSARSSVSYMYWYQQKPGKAPKLLIYRTSNLASGVPSRFSGSGSGTDFTLTISSLQPEDFATYYCQQYHSYPPTFGGGTKVEIK
notes: screened as scFv
In the case of B5, the off-rate constant (koff) in the assay with cynomolgus suPAR amounted to 0.000258 s⁻¹; in assay [1], 0.00358 s⁻¹.

B6: suPAR_DB04_C02 (scFv, V domains shown)
VH: QVQLVQSGAEVKKPGASVKVSCKASGNTFIGYYVHWVRQAPGQGLEWMGWIDHENGNTSYDQKFQGRVTMTRDTSTSTVYMELSSLRSEDTAVYYCARGNDVDWFVYWGQGTLVTVSS
VL: DIQMTQSPSSLSASVGDRVTITCSARSSVSYMYWYQQKPGKAPKLLIYRTSNLASGVPSRFSGSGSGTDFTLTISSLQPEDFATYYCQQYHSYPPTFGGGTKVEIK
notes: scFv clone from phage display
Turning to B6, the koff in assay [2] was determined as 0.000146 s⁻¹; in assay [3], 0.00411 s⁻¹.

B7: suPAR_DB03_E08 (scFv, V domains shown)
VH: QVQLVQSGAEVKKPGASVKVSCKASGYTFTHYYMHWVRQAPGQGLEWMGWIDPEGGSTIYDQKFQGRVTMTRDTSTSTVYMELSSLRSEDTAVYYCARGYDVDWFVYWGQGTLVTVSS
VL: DIQMTQSPSSLSASVGDRVTITCRASSSVSYMYWYQQKPGKAPKLLIYRTSNLASGVPSRFSGSGSGTDFTLTISSLQPEDFATYYCQQYHSYPPTFGGGTKVEIK
notes: screened as scFv
As for B7, the dissociation rate constant (koff) with cynomolgus suPAR was found to be 0.00025 s⁻¹; in assay [1] it was 0.005 s⁻¹.

B8: suPAR_DB03_D10 (scFv, V domains shown)
VH: QVQLVQSGAEVKKPGASVKVSCKASGYTFTSYYMHWVRQAPGQGLEWMGWIDPENGNTIYAQKFQGRVTMTRDTSTSTVYMELSSLRSEDTAVYYCARGYDVDWFVYWGQGTLVTVSS
VL: DIQMTQSPSSLSASVGDRVTITCSARSSVSYMYWYQQKPGKAPKLLIYRTSNLQSGVPSRFSGSGSGTDFTLTISSLQPEDFATYYCQQYHSYPPTFGGGTKVEIK
notes: screened as scFv
Regarding B8, the dissociation rate constant (koff) with cynomolgus suPAR is 0.000286 s⁻¹; in assay [1], 0.00527 s⁻¹.

B9: suPAR_DB03_E04 (scFv, V domains shown)
VH: QVQLVQSGAEVKKPGASVKVSCKASGYTFTGHYMHWVRQAPGQGLEWMGWIDPENGSTIYDQKFQGRVTMTRDTSTSTVYMELSSLRSEDTAVYYCARGYDVDWFVYWGQGTLVTVSS
VL: DIQMTQSPSSLSASVGDRVTITCSARSSVSYMYWYQQKPGKAPKLLIYRTSNLASGVPSRFSGSGSGTDFTLTISSLQPEDFATYYCQQYHSYPPTFGGGTKVEIK
notes: screened as scFv
For the molecule B9, the koff in the assay with cynomolgus suPAR was found to be 0.000669 s⁻¹; in assay [1], 0.00556 s⁻¹.

B10: suPAR_DB03_D08 (scFv, V domains shown)
VH: QVQLVQSGAEVKKPGASVKVSCKASGYTFTGYYMHWVRQAPGQGLEWMGWIDPENGSTIYDQKFQGRVTMTRDTSTSTVYMELSSLRSEDTAVYYCARGYDVDWFVYWGQGTLVTVSS
VL: DIQMTQSPSSLSASVGDRVTITCSARQSVSYMYWYQQKPGKAPKLLIYRTSNLASGVPSRFSGSGSGTDFTLTISSLQPEDFATYYCQQYHSYPPTFGGGTKVEIK
notes: screened as scFv
Turning to B10, the koff with cynomolgus suPAR amounted to 0.000482 s⁻¹; in assay [1], 0.00458 s⁻¹.

B11: suPAR_DB03_E06 (scFv, V domains shown)
VH: QVQLVQSGAEVKKPGASVKVSCKASGYTFTGQYVHWVRQAPGQGLEWMGWIDHENGNTIYDQKFQGRVTMTRDTSTSTVYMELSSLRSEDTAVYYCARGYDVDWFVYWGQGTLVTVSS
VL: DIQMTQSPSSLSASVGDRVTITCSARSSVSYMYWYQQKPGKAPKLLIYRTSNLASGVPSRFSGSGSGTDFTLTISSLQPEDFATYYCQQYHSYPPTFGGGTKVEIK
notes: screened as scFv
As for B11, the koff in the assay with cynomolgus suPAR came out at 7.36e-05 s⁻¹; in assay [1], 0.0044 s⁻¹.

B12: suPAR_DB03_D09 (scFv, V domains shown)
VH: QVQLVQSGAEVKKPGASVKVSCKASGYTFTGYYMHWVRQAPGQGLEWMGWIDHENGSTIYAQKFQGRVTMTRDTSTSTVYMELSSLRSEDTAVYYCARGYDVDWFVYWGQGTLVTVSS
VL: DIQMTQSPSSLSASVGDRVTITCSARSSVSYMYWYQQKPGKAPKLLIYRTSNLQSGVPSRFSGSGSGTDFTLTISSLQPEDFATYYCQQYHSYPPTFGGGTKVEIK
notes: screened as scFv
Turning to B12, the koff was 0.000508 s⁻¹ in the assay with cynomolgus suPAR and 0.000746 s⁻¹ in assay [1].

B13: suPAR_DB03_E03 (scFv, V domains shown)
VH: QVQLVQSGAEVKKPGASVKVSCKASGYTVTNYYMHWVRQAPGQGLEWMGWIDHENGNTIYDQKFQGRVTMTRDTSTSTVYMELSSLRSEDTAVYYCARGYDVDWFVYWGQGTLVTVSS
VL: DIQMTQSPSSLSASVGDRVTITCRARSSVSYMYWYQQKPGKAPKLLIYRTSNLASGVPSRFSGSGSGTDFTLTISSLQPEDFATYYCQQYHSYPPTFGGGTKVEIK
notes: screened as scFv
For the molecule B13, the koff was 0.000132 s⁻¹ with cynomolgus suPAR and 0.00231 s⁻¹ in assay [1].

B14: suPAR_DB03_D07 (scFv, V domains shown)
VH: QVQLVQSGAEVKKPGASVKVSCKASGNTFTNYYVHWVRQAPGQGLEWMGWIDPSNGNTIYDQKFQGRVTMTRDTSTSTVYMELSSLRSEDTAVYYCARGYDVDWFVYWGQGTLVTVSS
VL: DIQMTQSPSSLSASVGDRVTITCSARSSVSYMYWYQQKPGKAPKLLIYRTSNLASGVPSRFSGSGSGTDFTLTISSLQPEDFATYYCQQYHSYPPTFGGGTKVEIK
notes: screened as scFv
With B14, the koff amounted to 0.000163 s⁻¹ in the assay with cynomolgus suPAR and 0.00308 s⁻¹ in assay [1].
